Measurements published in PMC11784651 (mAbs, 2025).

B1: anti-CD38 E2-RecA Fab (Fab, V domains shown)
VH: QVQLVQSGAEVKKPGSSVKVSCKASGLPDATYAIGWVRQAPGQGLEWMGRIIPRLDAEHYAQKFQGRVTITADESTSTAYMELSSLRSEDTAVYYCARGLGYYLYSSYYFDIWGQGTLVTVSS
VL: not shown
B2: anti-CD38 B6-D9 Fab (Fab, V domains shown)
VH: QVQLVQSGAEVKKPGSSVKVSCKASGGFFSHYIINWVRQAPGQGLEWMGRVIPVIDDAYYAQKFQGRVTITADESTSTAYMELSSLRSEDTAVYYCARSRGYYGSFYFDIWGQGTLVTVSS
VL: not shown

Target: human CD38 extracellular domain (hsCD38 ECD) used for crystallization (Homo sapiens, stabilised)
Experiment: crystal structure

Binder | binding result
B1 | binds
B2 | binds
